From patent publication US20130203655A1, “METHODS FOR PREVENTING OR TREATING VIRAL INFECTION” (priority 2010, published 2013)

What was measured:
[1] = target: DENV2 E DI/II protein (monomeric, E residues 1-291, STST tag), wild type (Dengue virus 2 New Guinea C (NGC) strain); experiment: cell-based or functional assay
[2] = target: DENV2 E DI/II H244A protein (Dengue virus 2 New Guinea C (NGC) strain); experiment: cell-based or functional assay
[3] = target: DENV2 E′ protein (dimeric E ectodomain, E residues 1-395, ST tag) (Dengue virus 2 New Guinea C (NGC) strain); experiment: cell-based or functional assay
DENV1 H244A prM-E VLP = settings: 20 mM NH4Cl, total 36 h, vs untreated cells
Method: (§1) Expression of prM-E and VLP production. WT and E H244A mutant DENV1 prM-E sequences were PCR-amplified from the pGDENV1 3.3 subclones described above, and cloned into pcDNA4/TO (Invitrogen, Life Technologies, Carlsbad, Calif.). These constructs were transfected into T-REx™-293 cells (Invitrogen, Life Technologies, Carlsbad, Calif.) using Lipofectamine™ 2000 (Invitrogen, Life Technologies, Carlsbad, Calif.) and selected in T-REx HEK medium containing 125 μg/ml Zeocin, all as previous described.
(§2) For VLP secretion studies, 2-3×10^6 cells were seeded in 10 cm plates, cultured for 24 h, and then induced by culture for 36 h in 1.5 μg/ml tetracycline in DME medium with 10% FCS at 37° C. The culture media were centrifuged at 10,000×g for 30 min to remove cell debris. VLPs were then pelleted through a 0.5 ml sucrose cushion by centrifugation at 54,000 rpm for 2 h at 4° C. using a TLS55 rotor. To test the effect of neutralizing the pH of acidic cellular compartments, cells were seeded and induced as above. After 2 h of induction the media were changed to DME medium containing 20 mM HEPES pH 8.0, 2% FCS, and 1.5 μg/ml tetracycline plus 20 mM NH4Cl as indicated, and the incubation continued for a total of 36 h. E proteins in the cell lysates were immunoprecipitated using mAb 4G2.

DENV1 WT prM-E VLP = settings: 20 mM NH4Cl-treated vs untreated cells
Method: as §1, §2

DENV2 NGC DIII protein (LDIIIH1CS, E residues 289-430)
DI/II co-floatation with liposomes at low pH in the presence of DIII (none with BSA in place of DIII) [1]: 25%

recombinant DENV2 pr peptide (prM residues 1-86 with N-terminal GS and C-terminal tandem Strep tag)
efficiency of floatation of H244A DI/II with liposomes, in the absence of pr [2]: 43% | efficiency of floatation of H244A DI/II with liposomes, in the presence of pr [2]: 47% | E′ co-floatation with liposomes at pH 5.75, pr:E′ molar ratio 12:1 (about 70% with a control protein) [3]: 2% | E′ co-floatation with liposomes, pr:E′ molar ratio 3:1 [3]: 22% | E′ co-floatation with liposomes, pr:E′ molar ratio 6:1 [3]: 8% | E′ co-floatation with liposomes, pr:E′ molar ratio 24:1 [3]: 0.4%

Cl.N [NH4Cl]
increase in production of VLP containing H244A mutant E protein (DENV1 H244A prM-E VLP): 4-7 fold | WT VLP production (DENV1 WT prM-E VLP): similar
